Results on two compounds are retold here after article PMC4669500, “Characterization of Pseudooxynicotine Amine Oxidase of Pseudomonas putida S16 that Is Crucial for Nicotine Degradation” (Scientific Reports, 2015).

Data set [1] addresses T1, Pnao (pseudooxynicotine amine oxidase) (Pseudomonas putida, UniProt F8G0P1).
T1 construct: full-length, His6-tagged (pET28a NcoI-XhoI, tag kept), expressed in E. coli C43(DE3), about 54 kDa; FAD-containing
Briefly: HPLC and UV-Vis of cofactor released by boiling purified protein. The data set is classed as binding. The note with it: co-purified cofactor, non-covalent (released by boiling).

The subject of the next data set is CNCCCC(=O)c1cccnc1. Description: purified protein. The note with it: 30 °C, 25 mM sodium phosphate pH 8.5, O2 as oxidant. The data set is classed as biochemical, Pseudomonas putida.

T1 sequence (F8G0P1 whole entry): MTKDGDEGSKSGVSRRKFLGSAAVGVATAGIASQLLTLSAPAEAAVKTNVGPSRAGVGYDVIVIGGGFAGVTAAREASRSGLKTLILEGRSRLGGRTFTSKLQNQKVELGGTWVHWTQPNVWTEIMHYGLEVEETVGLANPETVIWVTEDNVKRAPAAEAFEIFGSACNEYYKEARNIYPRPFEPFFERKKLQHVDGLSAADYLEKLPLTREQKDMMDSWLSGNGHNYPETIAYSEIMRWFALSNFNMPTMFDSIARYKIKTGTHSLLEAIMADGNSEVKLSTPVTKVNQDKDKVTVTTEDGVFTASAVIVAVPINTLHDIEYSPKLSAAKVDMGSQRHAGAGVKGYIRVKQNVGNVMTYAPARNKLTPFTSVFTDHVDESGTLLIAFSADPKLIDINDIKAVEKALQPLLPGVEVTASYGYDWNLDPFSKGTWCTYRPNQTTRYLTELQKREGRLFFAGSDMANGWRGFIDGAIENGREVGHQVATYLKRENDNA

Consider `Cc1cc2nc3c(=O)[nH]c(=O)nc-3n(C[C@H](O)[C@H](O)[C@H](O)COP(=O)(O)OP(=O)(O)OC[C@H]3O[C@@H](n4cnc5c(N)ncnc54)[C@H](O)[C@@H]3O)c2cc1C` [FAD, Flavin adenine dinucleotide], for which the “HPLC and UV-Vis of cofactor released by boiling purified protein” value in data set [1] was “These results indicated that FAD was the cofactor associated with Pnao”.
A word on the Km: it is the concentration of substrate that gives half-maximal velocity. For orientation: kcat means the number of substrate molecules converted per active site and unit of time at saturation. In the case of “Pnao (pseudooxynicotine amine oxidase) (Pseudomonas putida S16)”, in the data set on CNCCCC(=O)c1cccnc1, the Km was 73 ± 18 µM and the kcat was found to be 0.790 ± 0.074 s⁻¹.
